The target in assay [1] is T1, Feline FcRn (complex of FcRn-α subunit and β-microglobulin, C-terminal His tag) (feline, UniProt A0ABI7ZNY9 23-296; Q5MGS7 21-118).
T1 construct: treated here as one molecule
Briefly: SPR Biacore, FcRn amine-coupled on CM5, pH 7.2. As to the method:
(§1) Feline FcRn was isolated, prepared and mutant Fc IgGs were assayed against feline FcRn according to Strietzelg et. al. Standard RACE PCR was used to amplify feline FcRn-α subunit and β-microglobulin. FcRn-α subunit and β-microglobulin were co-transfected into HEK 293 cells and the FcRn complex was purified by IMAC affinity purification via the c-terminal His tag. KD's were measured by Biacore 3000 or Biacore T200 (GE Healthcare, Pittsburgh, PA, USA) using a CM5 sensor chip.
(§2) FcRn was immobilized on the surface of the sensor using the standard amine immobilization method to reach the desired surface density. HBS-EP was used as the immobilization running buffer and 10 mM MES; 150 mM NaCl; 0.005% Tween20; 0.5 mg/mL BSA; pH6 and pH7.2 and PBS; 0.005% Tween20; 0.5 mg/mL BSA; pH7.4 were used for method running buffers and titrations. Fc mutant IgGs were flowed over receptor surfaces and affinity was determined using Scrubber2 software analysis (BioLogic Software Pty, Ltd., Campbell, Australia) or T200 evaluation software (Table 2). Blank runs containing buffer only were subtracted out from all runs. Flow cells were regenerated using 50 mM Tris pH8. Runs were performed at 15° C.

For assay [2], the target named is T1, Feline FcRn (complex of FcRn-α subunit …). The experiment in a line: SPR Biacore, FcRn amine-coupled on CM5, pH 6. As for the experimental part: as §1, §2

Broadly, the Kd is the constant that tells how readily two partners part at equilibrium. A high value points to a looser complex.

B1: Anti-NGF antibody of Table 3, S434G (antibody)
heavy: DVQLVESGGDLVKPGGSLRLTCVASGFTYSNYWMHWVRQAPGKGLQWVARIDPYGGGTKHNEKFKRRFTISRDNAKNTLYLQMNSLKTEDTATYYCVRSGYDYYFDVWGQGTLVTVSSASTTAPSVFPLAPSCGTTSGATVALACLVLGYFPEPVTVSWNSGALTSGVHTFPAVLQASGLYSLSSMVTVPSSRWLSDTFTCNVAHPPSNTKVDKTVRKTDHPPGPKPCDCPKCPPPEMLGGPSIFIFPPKPKDTLSISRTPEVTCLVVDLGPDDSDVQITWFVDNTQVYTAKTSPREEQFNSTYRVVSVLPILHQDWLKGKEFKCKVNSKSLPSPIERTISKAKGQPHEPQVYVLPPAQEELSRNKVSVTCLIKSFHPPDIAVEWEITGQPEPENNYRTTPPQLDSDGTYFVYSKLSVDRSHWQRGNTYTCSVSHEALHGHHTQKSLTQSPGK
light: EIQMTQSPSSLSASPGDRVTITCRASENIYSFLAWYQQKPGKVPKLLIYNANTLAEGVPSRFSGSGSGTDFTLTISSLEPEDAATYYCQHHFGTPFTFGSGTKLEIKRSDAQPSVFLFQPSLDELHTGSASIVCILNDFYPKEVNVKWKVDGVVQNKGIQESTTEQNSKDSTYSLSSTLTMSSTEYQSHEKFSCEVTHKSLASTLVKSFQRSECQRE
Consider B1, for which the values for the dissociation constant Kd in assay [1] and in assay [2] were 21.6 nM and 9.58 nM, respectively.

B2: Anti-NGF antibody of Table 3, S434K (antibody)
heavy: DVQLVESGGDLVKPGGSLRLTCVASGFTYSNYWMHWVRQAPGKGLQWVARIDPYGGGTKHNEKFKRRFTISRDNAKNTLYLQMNSLKTEDTATYYCVRSGYDYYFDVWGQGTLVTVSSASTTAPSVFPLAPSCGTTSGATVALACLVLGYFPEPVTVSWNSGALTSGVHTFPAVLQASGLYSLSSMVTVPSSRWLSDTFTCNVAHPPSNTKVDKTVRKTDHPPGPKPCDCPKCPPPEMLGGPSIFIFPPKPKDTLSISRTPEVTCLVVDLGPDDSDVQITWFVDNTQVYTAKTSPREEQFNSTYRVVSVLPILHQDWLKGKEFKCKVNSKSLPSPIERTISKAKGQPHEPQVYVLPPAQEELSRNKVSVTCLIKSFHPPDIAVEWEITGQPEPENNYRTTPPQLDSDGTYFVYSKLSVDRSHWQRGNTYTCSVSHEALHKHHTQKSLTQSPGK
light: EIQMTQSPSSLSASPGDRVTITCRASENIYSFLAWYQQKPGKVPKLLIYNANTLAEGVPSRFSGSGSGTDFTLTISSLEPEDAATYYCQHHFGTPFTFGSGTKLEIKRSDAQPSVFLFQPSLDELHTGSASIVCILNDFYPKEVNVKWKVDGVVQNKGIQESTTEQNSKDSTYSLSSTLTMSSTEYQSHEKFSCEVTHKSLASTLVKSFQRSECQRE
On to B2, for which the Kd turned out to be 5.06 nM in assay [1] and 6.76 nM in assay [2].

B3: Anti-NGF antibody of Table 3, S434I (antibody)
heavy: DVQLVESGGDLVKPGGSLRLTCVASGFTYSNYWMHWVRQAPGKGLQWVARIDPYGGGTKHNEKFKRRFTISRDNAKNTLYLQMNSLKTEDTATYYCVRSGYDYYFDVWGQGTLVTVSSASTTAPSVFPLAPSCGTTSGATVALACLVLGYFPEPVTVSWNSGALTSGVHTFPAVLQASGLYSLSSMVTVPSSRWLSDTFTCNVAHPPSNTKVDKTVRKTDHPPGPKPCDCPKCPPPEMLGGPSIFIFPPKPKDTLSISRTPEVTCLVVDLGPDDSDVQITWFVDNTQVYTAKTSPREEQFNSTYRVVSVLPILHQDWLKGKEFKCKVNSKSLPSPIERTISKAKGQPHEPQVYVLPPAQEELSRNKVSVTCLIKSFHPPDIAVEWEITGQPEPENNYRTTPPQLDSDGTYFVYSKLSVDRSHWQRGNTYTCSVSHEALHIHHTQKSLTQSPGK
light: EIQMTQSPSSLSASPGDRVTITCRASENIYSFLAWYQQKPGKVPKLLIYNANTLAEGVPSRFSGSGSGTDFTLTISSLEPEDAATYYCQHHFGTPFTFGSGTKLEIKRSDAQPSVFLFQPSLDELHTGSASIVCILNDFYPKEVNVKWKVDGVVQNKGIQESTTEQNSKDSTYSLSSTLTMSSTEYQSHEKFSCEVTHKSLASTLVKSFQRSECQRE
In the case of B3, the figures for the Kd in assay [1] and in assay [2] were 18.1 nM and 14.4 nM, respectively.

B4: Anti-NGF antibody of Table 3, S434N (antibody)
heavy: DVQLVESGGDLVKPGGSLRLTCVASGFTYSNYWMHWVRQAPGKGLQWVARIDPYGGGTKHNEKFKRRFTISRDNAKNTLYLQMNSLKTEDTATYYCVRSGYDYYFDVWGQGTLVTVSSASTTAPSVFPLAPSCGTTSGATVALACLVLGYFPEPVTVSWNSGALTSGVHTFPAVLQASGLYSLSSMVTVPSSRWLSDTFTCNVAHPPSNTKVDKTVRKTDHPPGPKPCDCPKCPPPEMLGGPSIFIFPPKPKDTLSISRTPEVTCLVVDLGPDDSDVQITWFVDNTQVYTAKTSPREEQFNSTYRVVSVLPILHQDWLKGKEFKCKVNSKSLPSPIERTISKAKGQPHEPQVYVLPPAQEELSRNKVSVTCLIKSFHPPDIAVEWEITGQPEPENNYRTTPPQLDSDGTYFVYSKLSVDRSHWQRGNTYTCSVSHEALHNHHTQKSLTQSPGK
light: EIQMTQSPSSLSASPGDRVTITCRASENIYSFLAWYQQKPGKVPKLLIYNANTLAEGVPSRFSGSGSGTDFTLTISSLEPEDAATYYCQHHFGTPFTFGSGTKLEIKRSDAQPSVFLFQPSLDELHTGSASIVCILNDFYPKEVNVKWKVDGVVQNKGIQESTTEQNSKDSTYSLSSTLTMSSTEYQSHEKFSCEVTHKSLASTLVKSFQRSECQRE
Consider B4, for which the dissociation constant Kd in assay [1] was determined as 0.00847 nM; in assay [2] it was 6.94 nM.

B5: Anti-NGF antibody of Table 3, S434M (antibody)
heavy: DVQLVESGGDLVKPGGSLRLTCVASGFTYSNYWMHWVRQAPGKGLQWVARIDPYGGGTKHNEKFKRRFTISRDNAKNTLYLQMNSLKTEDTATYYCVRSGYDYYFDVWGQGTLVTVSSASTTAPSVFPLAPSCGTTSGATVALACLVLGYFPEPVTVSWNSGALTSGVHTFPAVLQASGLYSLSSMVTVPSSRWLSDTFTCNVAHPPSNTKVDKTVRKTDHPPGPKPCDCPKCPPPEMLGGPSIFIFPPKPKDTLSISRTPEVTCLVVDLGPDDSDVQITWFVDNTQVYTAKTSPREEQFNSTYRVVSVLPILHQDWLKGKEFKCKVNSKSLPSPIERTISKAKGQPHEPQVYVLPPAQEELSRNKVSVTCLIKSFHPPDIAVEWEITGQPEPENNYRTTPPQLDSDGTYFVYSKLSVDRSHWQRGNTYTCSVSHEALHMHHTQKSLTQSPGK
light: EIQMTQSPSSLSASPGDRVTITCRASENIYSFLAWYQQKPGKVPKLLIYNANTLAEGVPSRFSGSGSGTDFTLTISSLEPEDAATYYCQHHFGTPFTFGSGTKLEIKRSDAQPSVFLFQPSLDELHTGSASIVCILNDFYPKEVNVKWKVDGVVQNKGIQESTTEQNSKDSTYSLSSTLTMSSTEYQSHEKFSCEVTHKSLASTLVKSFQRSECQRE
Regarding B5, the Kd was determined as 1.92 nM in assay [1] and 2.8 nM in assay [2].

B6: Anti-NGF antibody of Table 3, S434L (antibody)
heavy: DVQLVESGGDLVKPGGSLRLTCVASGFTYSNYWMHWVRQAPGKGLQWVARIDPYGGGTKHNEKFKRRFTISRDNAKNTLYLQMNSLKTEDTATYYCVRSGYDYYFDVWGQGTLVTVSSASTTAPSVFPLAPSCGTTSGATVALACLVLGYFPEPVTVSWNSGALTSGVHTFPAVLQASGLYSLSSMVTVPSSRWLSDTFTCNVAHPPSNTKVDKTVRKTDHPPGPKPCDCPKCPPPEMLGGPSIFIFPPKPKDTLSISRTPEVTCLVVDLGPDDSDVQITWFVDNTQVYTAKTSPREEQFNSTYRVVSVLPILHQDWLKGKEFKCKVNSKSLPSPIERTISKAKGQPHEPQVYVLPPAQEELSRNKVSVTCLIKSFHPPDIAVEWEITGQPEPENNYRTTPPQLDSDGTYFVYSKLSVDRSHWQRGNTYTCSVSHEALHLHHTQKSLTQSPGK
light: EIQMTQSPSSLSASPGDRVTITCRASENIYSFLAWYQQKPGKVPKLLIYNANTLAEGVPSRFSGSGSGTDFTLTISSLEPEDAATYYCQHHFGTPFTFGSGTKLEIKRSDAQPSVFLFQPSLDELHTGSASIVCILNDFYPKEVNVKWKVDGVVQNKGIQESTTEQNSKDSTYSLSSTLTMSSTEYQSHEKFSCEVTHKSLASTLVKSFQRSECQRE
Turning to B6, the equilibrium dissociation constant (Kd) in assay [1] was 6.57 nM; in assay [2], 8.67 nM.

B7: Anti-NGF antibody of Table 3, S434P (antibody)
heavy: DVQLVESGGDLVKPGGSLRLTCVASGFTYSNYWMHWVRQAPGKGLQWVARIDPYGGGTKHNEKFKRRFTISRDNAKNTLYLQMNSLKTEDTATYYCVRSGYDYYFDVWGQGTLVTVSSASTTAPSVFPLAPSCGTTSGATVALACLVLGYFPEPVTVSWNSGALTSGVHTFPAVLQASGLYSLSSMVTVPSSRWLSDTFTCNVAHPPSNTKVDKTVRKTDHPPGPKPCDCPKCPPPEMLGGPSIFIFPPKPKDTLSISRTPEVTCLVVDLGPDDSDVQITWFVDNTQVYTAKTSPREEQFNSTYRVVSVLPILHQDWLKGKEFKCKVNSKSLPSPIERTISKAKGQPHEPQVYVLPPAQEELSRNKVSVTCLIKSFHPPDIAVEWEITGQPEPENNYRTTPPQLDSDGTYFVYSKLSVDRSHWQRGNTYTCSVSHEALHPHHTQKSLTQSPGK
light: EIQMTQSPSSLSASPGDRVTITCRASENIYSFLAWYQQKPGKVPKLLIYNANTLAEGVPSRFSGSGSGTDFTLTISSLEPEDAATYYCQHHFGTPFTFGSGTKLEIKRSDAQPSVFLFQPSLDELHTGSASIVCILNDFYPKEVNVKWKVDGVVQNKGIQESTTEQNSKDSTYSLSSTLTMSSTEYQSHEKFSCEVTHKSLASTLVKSFQRSECQRE
Turning to B7, the equilibrium dissociation constant (Kd) in assay [1] turned out to be 0.0157 nM; in assay [2], 5.64 nM.

The record behind these values is US20260193335A1 (ZOETIS SERVICES, published 2026).
